Measured values: paper PMC6829469, “A Genome-Centric Approach Reveals a Novel Glycosyltransferase from the GA A07 Strain of Bacillus thuringiensis Responsible for Catalyzing 15-O-Glycosylation of Ganoderic Acid A” (International Journal of Molecular Sciences, 2019)

B1: BsUGT398 (Bacillus spizizenii str. W23) (protein)
chain: MKTVLILNFPAEGHVNPTLGITKAFADRGYDVHYISTEKYKERLEAVGATVHLHQDLLRTTPINIASPNGILDFLKIHIKTSLDILHIVKELSKSIQFDFVYYDKFGAGELVRDYLNIPGISSSASFLFGEEHLKILPLHPDSEVPLQLDKQCEDLLLEMKQNYGVSPENMVQFMNNKGELNVVYTSRYFQPESHRFGDEFLFIGPSFPKRAEKTDFPTDKLKDEKVIYISMGTVLDETEEFFNLCIDAFSDVKGKVVIAAGEKADLTKLKQAPENFIIASYVPQLEVLEQSDVFITHGGMNSVNEGIHFNVPLVVMPHDKDQPMVAQRLTELQAGYTVSKDHVTAQSLKHAVEEVLNNDRYKEGIQKINRSFQDCMNMEEVMERIDQFIEQRK
notes: recombinant purified, obtained from the authors' previous study; GT1 family

Key:
[1] = test system: [H][C@@]12C[C@H](O)C3=C(C(=O)C[C@]4(C)[C@@]([H])([C@H](C)CC(=O)C[C@@H](C)C(=O)O)C[C@H](O)[C@@]34C)[C@@]1(C)CCC(=O)C2(C)C; experiment: purified protein; details: 10 mM UDP-glucose, 10 mM MgCl2, 50 mM Tris pH 8.0, 40 °C
Excerpt: UPLC of GAA-15-O-beta-glucoside formation, Michaelis-Menten nonlinear fit on BsUGT489

[2] = substrate: [H][C@@]12C[C@H](O)C3=C(C(=O)C[C@]4(C)[C@@]([H])([C@H](C)CC(=O)C[C@@H](C)C(=O)O)C[C@H](O)[C@@]34C)[C@@]1(C)CCC(=O)C2(C)C; experiment: UPLC of GAA-15-O-beta-glucoside formation, Michaelis-Menten nonlinear fit; assay type: biochemical, Bacillus spizizenii; details: 10 mM UDP-glucose, 10 mM MgCl2, 50 mM Tris pH 8.0, 40 °C
Excerpt: UPLC of GAA-15-O-beta-glucoside formation, Michaelis-Menten nonlinear fit on BsUGT398

Molecule | Km [1] [µM] | kcat [1] [s⁻¹] | kcat/Km [1] [M⁻¹ s⁻¹] | Km [2] [µM] | kcat [2] [s⁻¹] | kcat/Km [2] [M⁻¹ s⁻¹]
BsUGT489 (Bacillus spizizenii) | 793.96 ± 124.09 | 0.934 ± 0.0626 | 1180 ± 200 | – | – | –
B1 | – | – | – | 90.71 ± 14.86 | 0.14 ± 0.0051 | 1540 ± 259
